Measurements as given in the supplement of paper PMC9112550, “Optimization of the antimicrobial peptide Bac7 by deep mutational scanning” (BMC Biology, 2022).

system: Escherichia coli TOP10; assay: shrunken log2 fold change of peptide-encoding DNA abundance (4.5 h post-induction vs induction); higher = less antimicrobial activity (less host growth inhibition); details: time post-induction: 4.5 h; library: site-saturation at positions 5, 18, 19, 20
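Further: peptides expressed intracellularly from a pBAD plasmid library in pooled LB shake-flask culture, induced with 0.3% L-arabinose, DNA abundance read by NGS, three biological replicates, DESeq2 with apeglm shrinkage.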

Sequence | shrunken log2 fold change
RRIRRRPPRLPRPRPRPDMFPRP | 0.0219
RRIRYRPPRLPRPRPRPQDDPRP | -0.0017
RRIRYRPPRLPRPRPRPWQSPRP | -0.121
RRIRMRPPRLPRPRPRPGNHPRP | -0.0526
RRIRWRPPRLPRPRPRPQGLPRP | 0.00602
RRIRFRPPRLPRPRPRPAWCPRP | 0.205
RRIRERPPRLPRPRPRPVCTPRP | -0.147
RRIRTRPPRLPRPRPRPWRAPRP | 0.21
RRIRGRPPRLPRPRPRPLFFPRP | 0.415
RRIRERPPRLPRPRPRPRSAPRP | 0.25
RRIRHRPPRLPRPRPRPHLCPRP | -0.0468
RRIRNRPPRLPRPRPRPACCPRP | 0.236
RRIRVRPPRLPRPRPRPCVGPRP | 0.00147
RRIRQRPPRLPRPRPRPVDKPRP | -0.0881
RRIRKRPPRLPRPRPRPEVFPRP | 0.403
RRIRMRPPRLPRPRPRPNRVPRP | -0.144
RRIRTRPPRLPRPRPRPWFHPRP | -0.362
RRIRQRPPRLPRPRPRPLGFPRP | 0.0916
RRIRVRPPRLPRPRPRPPIYPRP | -0.16
RRIRRRPPRLPRPRPRPQSRPRP | 0.00841
RRIRTRPPRLPRPRPRPNHEPRP | -0.143
RRIRIRPPRLPRPRPRPEVPPRP | -0.0152
RRIRNRPPRLPRPRPRPKKLPRP | -0.0729
RRIRLRPPRLPRPRPRPVIVPRP | -0.0265
RRIRGRPPRLPRPRPRPKWVPRP | 0.233

Sequence | shrunken log2 fold change
RRIRERPPRLPRPRPRPNICPRP | -0.523
RRIRFRPPRLPRPRPRPSVAPRP | 0.882
RRIRSRPPRLPRPRPRPTTSPRP | 0.094
RRIRDRPPRLPRPRPRPRYWPRP | 0.152
RRIRDRPPRLPRPRPRPENVPRP | 0.218
RRIRMRPPRLPRPRPRPCAWPRP | 0.513
RRIRPRPPRLPRPRPRPTWYPRP | -0.133
RRIRHRPPRLPRPRPRPMIQPRP | -0.0673
RRIRVRPPRLPRPRPRPEWRPRP | 0.212
RRIRQRPPRLPRPRPRPCKMPRP | 0.0276
RRIRERPPRLPRPRPRPDYVPRP | -0.00136
RRIRFRPPRLPRPRPRPVCAPRP | 0.198
RRIRIRPPRLPRPRPRPESAPRP | 0.0116
RRIRLRPPRLPRPRPRPLMTPRP | -0.344
RRIRPRPPRLPRPRPRPRRIPRP | 0.252
RRIRVRPPRLPRPRPRPEQEPRP | -0.0189
RRIRNRPPRLPRPRPRPWIVPRP | 0.0724
RRIRLRPPRLPRPRPRPGQGPRP | -0.0179
RRIRARPPRLPRPRPRPLKFPRP | -0.38
RRIRLRPPRLPRPRPRPNIMPRP | -0.602
RRIRQRPPRLPRPRPRPALIPRP | 0.144
RRIRNRPPRLPRPRPRPMLFPRP | -0.301
RRIRDRPPRLPRPRPRPSGQPRP | -0.0305
RRIRSRPPRLPRPRPRPSVCPRP | 0.0526
RRIRTRPPRLPRPRPRPPGEPRP | 0.318

Sequence | shrunken log2 fold change
RRIRTRPPRLPRPRPRPIMHPRP | -0.176
RRIRNRPPRLPRPRPRPTSKPRP | -0.0758
RRIRYRPPRLPRPRPRPKVPPRP | 0.0215
RRIRFRPPRLPRPRPRPHNYPRP | -0.633
RRIRLRPPRLPRPRPRPHQDPRP | -0.308
RRIRIRPPRLPRPRPRPDQGPRP | 0.0651
RRIRDRPPRLPRPRPRPAQNPRP | 0.308
RRIRPRPPRLPRPRPRPNMFPRP | -0.254
RRIRMRPPRLPRPRPRPKQTPRP | 3.33
RRIRKRPPRLPRPRPRPTWRPRP | 1.23
RRIRKRPPRLPRPRPRPYMHPRP | -0.0355
RRIRARPPRLPRPRPRPWQKPRP | -0.0111
RRIRGRPPRLPRPRPRPTFEPRP | 0.923
RRIRLRPPRLPRPRPRPVMFPRP | -0.268
RRIRDRPPRLPRPRPRPSWEPRP | -0.00136
RRIRPRPPRLPRPRPRPITEPRP | -0.0543
RRIRCRPPRLPRPRPRPICNPRP | -0.579
RRIRMRPPRLPRPRPRPVIFPRP | -0.237
RRIRKRPPRLPRPRPRPMADPRP | -0.000921
RRIRARPPRLPRPRPRPMPNPRP | 0.353
RRIRTRPPRLPRPRPRPCVQPRP | 0.0274
RRIRYRPPRLPRPRPRPVEQPRP | -0.191
RRIRTRPPRLPRPRPRPIIHPRP | -0.937
RRIRQRPPRLPRPRPRPVEYPRP | -0.434
RRIRWRPPRLPRPRPRPKWVPRP | -0.00843

Sequence | shrunken log2 fold change
RRIRFRPPRLPRPRPRPIPLPRP | -0.483
RRIRMRPPRLPRPRPRPWDMPRP | 0.00416
RRIRVRPPRLPRPRPRPGFNPRP | -0.0909
RRIRCRPPRLPRPRPRPQDTPRP | -0.313
RRIRERPPRLPRPRPRPSIKPRP | -0.755
RRIRGRPPRLPRPRPRPMTWPRP | 0.17
RRIRSRPPRLPRPRPRPMHSPRP | -0.055
RRIRARPPRLPRPRPRPEDYPRP | -0.0332
RRIRCRPPRLPRPRPRPSRNPRP | 0.155
RRIRLRPPRLPRPRPRPGMKPRP | -0.0618
RRIRGRPPRLPRPRPRPMRRPRP | 1.25
RRIRNRPPRLPRPRPRPLPFPRP | -0.153
RRIRSRPPRLPRPRPRPRPWPRP | 0.324
RRIRRRPPRLPRPRPRPWFYPRP | -0.00712
RRIRARPPRLPRPRPRPWSQPRP | 0.149
RRIRQRPPRLPRPRPRPHEQPRP | 0.0505
RRIRIRPPRLPRPRPRPHMQPRP | -0.169
RRIRSRPPRLPRPRPRPIGDPRP | 0.0153
RRIRDRPPRLPRPRPRPFHTPRP | -0.569
RRIRFRPPRLPRPRPRPGSGPRP | 0.161
RRIRSRPPRLPRPRPRPWDFPRP | -0.224
RRIRERPPRLPRPRPRPPNGPRP | 0.203
RRIRKRPPRLPRPRPRPSGNPRP | 0.267
RRIRYRPPRLPRPRPRPQTTPRP | -0.0405
RRIRDRPPRLPRPRPRPDPEPRP | 0.0311

Sequence | shrunken log2 fold change
RRIRCRPPRLPRPRPRPWSHPRP | -0.0223
RRIRWRPPRLPRPRPRPYFDPRP | -0.811
RRIRNRPPRLPRPRPRPEVAPRP | 0.418
RRIRVRPPRLPRPRPRPAPFPRP | 0.0259
RRIRERPPRLPRPRPRPWLTPRP | -0.0528
RRIRWRPPRLPRPRPRPLSRPRP | 0.141
RRIRARPPRLPRPRPRPTHLPRP | 0.326
RRIRERPPRLPRPRPRPAWAPRP | 0.0704
RRIRDRPPRLPRPRPRPTQHPRP | 0.396
RRIRKRPPRLPRPRPRPHYQPRP | -0.101
RRIRYRPPRLPRPRPRPDMCPRP | -0.0185
RRIRNRPPRLPRPRPRPCGPPRP | -0.0549
RRIRERPPRLPRPRPRPFSTPRP | -0.0931
RRIRDRPPRLPRPRPRPWWLPRP | 0.0758
RRIRHRPPRLPRPRPRPMSSPRP | -0.225
RRIRLRPPRLPRPRPRPVFEPRP | 0.239
RRIRQRPPRLPRPRPRPPTYPRP | -0.0183
RRIRVRPPRLPRPRPRPQCIPRP | 0.101
RRIRQRPPRLPRPRPRPFHNPRP | -0.152
RRIRFRPPRLPRPRPRPGAMPRP | 0.0505
RRIRTRPPRLPRPRPRPCQVPRP | -0.304
RRIRKRPPRLPRPRPRPHSKPRP | 0.0726
RRIRTRPPRLPRPRPRPWCYPRP | -0.291
RRIRYRPPRLPRPRPRPQQDPRP | -0.0899
RRIRYRPPRLPRPRPRPRAFPRP | -0.677

Sequence | shrunken log2 fold change
RRIRDRPPRLPRPRPRPDPNPRP | 0.00812
RRIRQRPPRLPRPRPRPRTQPRP | 0.0198
RRIRGRPPRLPRPRPRPHRMPRP | -0.101
RRIRGRPPRLPRPRPRPDHNPRP | 0.0326
RRIRWRPPRLPRPRPRPKMYPRP | -0.13
RRIRFRPPRLPRPRPRPMMHPRP | -0.181
RRIRSRPPRLPRPRPRPWGWPRP | 0.0685
RRIRCRPPRLPRPRPRPGFGPRP | 0.399
RRIRVRPPRLPRPRPRPDNPPRP | -0.101
RRIRIRPPRLPRPRPRPLCFPRP | -0.485
RRIRFRPPRLPRPRPRPDCPPRP | -0.364
RRIRQRPPRLPRPRPRPHAIPRP | -0.562
RRIRCRPPRLPRPRPRPPWWPRP | 2.01
RRIRWRPPRLPRPRPRPYTSPRP | -0.0806
RRIRMRPPRLPRPRPRPLHIPRP | -0.0533
RRIRTRPPRLPRPRPRPYFFPRP | -0.684
RRIRLRPPRLPRPRPRPTHCPRP | -0.0342
RRIRLRPPRLPRPRPRPGEEPRP | 0.143
RRIRTRPPRLPRPRPRPVVPPRP | -0.314
RRIRFRPPRLPRPRPRPRIQPRP | 0.018
RRIRNRPPRLPRPRPRPNLGPRP | -0.00992
RRIRLRPPRLPRPRPRPSQYPRP | -0.504
RRIRWRPPRLPRPRPRPTMEPRP | 0.00667
RRIRARPPRLPRPRPRPDYYPRP | -0.135
RRIRRRPPRLPRPRPRPIVIPRP | -0.125
